Assays:
[1] = system: T1, Tagged wild-type human A2M
T1 sequence: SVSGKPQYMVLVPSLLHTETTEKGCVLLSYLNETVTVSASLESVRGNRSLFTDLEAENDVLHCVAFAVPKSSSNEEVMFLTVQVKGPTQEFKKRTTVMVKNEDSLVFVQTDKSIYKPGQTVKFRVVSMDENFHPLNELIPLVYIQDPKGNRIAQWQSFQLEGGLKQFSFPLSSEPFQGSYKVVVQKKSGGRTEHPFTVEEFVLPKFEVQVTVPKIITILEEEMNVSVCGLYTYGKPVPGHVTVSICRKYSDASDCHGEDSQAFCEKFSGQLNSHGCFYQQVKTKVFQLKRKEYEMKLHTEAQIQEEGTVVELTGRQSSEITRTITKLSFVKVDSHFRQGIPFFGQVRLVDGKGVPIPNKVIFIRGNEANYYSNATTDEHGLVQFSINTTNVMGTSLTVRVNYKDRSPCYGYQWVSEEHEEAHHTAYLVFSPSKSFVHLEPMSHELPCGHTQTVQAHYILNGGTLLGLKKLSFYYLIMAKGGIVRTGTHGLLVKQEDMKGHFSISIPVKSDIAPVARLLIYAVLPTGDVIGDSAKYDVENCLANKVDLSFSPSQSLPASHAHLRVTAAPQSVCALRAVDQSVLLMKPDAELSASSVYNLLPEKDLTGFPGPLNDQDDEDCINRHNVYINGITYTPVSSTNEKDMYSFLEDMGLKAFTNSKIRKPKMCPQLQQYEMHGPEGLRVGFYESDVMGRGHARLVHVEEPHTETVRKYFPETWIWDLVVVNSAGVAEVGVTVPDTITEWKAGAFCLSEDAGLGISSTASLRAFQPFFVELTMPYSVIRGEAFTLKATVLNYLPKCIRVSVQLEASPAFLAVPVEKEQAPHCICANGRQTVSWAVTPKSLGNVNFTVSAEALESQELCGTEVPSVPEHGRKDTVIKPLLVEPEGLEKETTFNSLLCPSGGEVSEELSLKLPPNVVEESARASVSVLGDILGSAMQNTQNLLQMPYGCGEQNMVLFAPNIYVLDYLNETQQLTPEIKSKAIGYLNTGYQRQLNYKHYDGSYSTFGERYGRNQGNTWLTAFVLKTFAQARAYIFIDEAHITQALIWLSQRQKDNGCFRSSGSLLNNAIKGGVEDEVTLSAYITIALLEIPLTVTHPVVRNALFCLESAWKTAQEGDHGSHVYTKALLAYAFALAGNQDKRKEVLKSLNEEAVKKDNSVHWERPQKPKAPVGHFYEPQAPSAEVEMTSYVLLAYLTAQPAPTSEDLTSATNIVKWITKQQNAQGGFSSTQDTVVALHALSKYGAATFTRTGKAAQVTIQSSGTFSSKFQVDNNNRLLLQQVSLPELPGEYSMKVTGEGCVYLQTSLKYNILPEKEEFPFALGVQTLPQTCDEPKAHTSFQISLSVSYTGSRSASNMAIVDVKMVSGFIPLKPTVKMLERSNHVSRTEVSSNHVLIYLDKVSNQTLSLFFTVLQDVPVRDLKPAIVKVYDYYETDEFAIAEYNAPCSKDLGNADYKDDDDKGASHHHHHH

[2] = system: the four selected A2M variants

## chymotrypsin
[1]
  slope of FTC-casein digestion (fluorescent proteolysis assay): the variants are all capable of inhibiting various proteases, including trypsin and chymotrypsin approximately equally, to the wild-type A2M
[2]
  slope of FTC-casein digestion (fluorescent proteolysis assay): the variants are all capable of inhibiting various proteases, including trypsin and chymotrypsin approximately equally, to the wild-type A2M
